{"source": "the DeepSol protein solubility set", "data": [{"test": "soluble on expression in E. coli; label from the status in PepcDB or PDB records", "values": [{"sequence": "MSLTNNVIHLIPEIERILRIKYDDKQKELFYKINENNILVLTGFAGTGKSSVLNGLLNLFDKKNITYKLMSPTAKAAKRMEECTGKKASTIHRALGLAEGKFLVNEKNPFAEDVIIIDETSMVDIYLFLAVLKGIKNTTKLLCLGDYGQLESISAGNVLFDMIQGGIPCVKLEKIFRQKEDSSLLNVITNIRNGDNPLKNTHKTYLELGRDCKFWLGKKEQTLSRVLLCYKECLKHFSREDIMVLCPMKKGNSGVNKLNQELQKIANSQNTEELKLKDCAYKKEDLVMHIKNDYNANIFSEDCKDTIAKGIFNGDAGKIEKIDLENQKLYVSYDSGIVEYDNSNLNELMLSYALTIHKVQGSQSKVVIVALDMSHYKMLKRSLLYTAASRCVELLIFICDPKAFSIALNNNQVTHKNTFLGELLKISEGHHHHHH", "soluble on expression in E. coli": "not soluble"}, {"sequence": "MSLTPATRNNDSAVAVADAFDDTGDGPPTAARFAALAACWRQPDDDLQAALAAETDTTVDAQSLRAEYTRLFVGPGPSQSPPYESVYRDGERDADLGPVYGSSTQAVARWYSEYGLQPAASESAPPDHLATELEFAAYLREHEGAETLEQFLTEHPRNWVESFARRVRDADPKPFYRTLLNVTVDTLARADTPLEGHHHHHH", "soluble on expression in E. coli": "not soluble"}, {"sequence": "MSLTQREEELARVLSGPEFATIRPDDLSVLDYSLLTLRRARLLNGAGFAANSLWLGRGDSARFPEFLRTMGWIGAYDLSLLNVLVSHQIAGDALLSHGGPEQLDAWAGEIDAMERMYCFAGSELLAGSDLKRVRTTAVYDPHGRSLVLNTPRPADSKVWTGNSLHTGDVAMVLARLEVGGRDEGHHWLRVPLREAGAVLPGVRIGRAEPKGGVTANQTGVLTFTDHRLPLSALMNRWASIDEDGTYRSPLPRHRRFEECLATFTHERLFPSVGAAYAQLLACTITTRFAAVKQTFGRPLIGHEHYRMRLSAAVGRSLAARHAMTALAEVAVARSAEGAPARDQVLHALISCGKSGCTGDARQTLAETRELCGGLGYHDANQIAPLLHDYEIAVTFGGDNTVLGYQATRFALREGHHHHHH", "soluble on expression in E. coli": "not soluble"}, {"sequence": "MSLTQSHHDHVEKQFSSQASEYLTSTVHASGRDLQRLAVRLADYPDASVLDMGCGAGHASFVAAQNVSTVVAYDLSAHMLDVVAQAAEARQLKNITTRQGYVESLPFADNAFDIVISRYSAHHWHDVGAALREVNRILKLGGKLIVMDVMSPGHPVRDIWLQTVEALRDISHTRNYASGEWLTLISEANLIVDNLITDKLPLEFSSWVARMRTPEALVDAIRIYQQSASTEVKTYFALQNEGHHHHHH", "soluble on expression in E. coli": "not soluble"}, {"sequence": "MSLTRFSVSPGDPMKKFVTLALTLSTLGASVASAQAVRVGMAYDAGGKADKSFNQSAYEGSQLAAKKLGIQVKDFEPSDPSQIIQGVRSFAKEGFDLTIGVGFSNNASITQVAKENPDLYFGLVDDVSTAKNVASLVFNEEQGSYLVGYLAAMNSSTGVVGFIGGMNIPLIHKFEAGYRAGVKAANPKATIISQYVGNTPEAWNNPGKAKEIAANMRGRGADIIFAAAGGSGNGLIDYIKQTPCLNASQLPKGVTFKSDNFKNVKKSAAYAKACTGNTRPMFFIGVDSNQNYLGDFDKNPATLNHGLTSMVKRVDNAVYALINEVKNDKFKAGERRFGLKDGGVAYAVDQYNKALLPAAQIAKVEAVKQQIIKGQIKVPTKEGGSHHHHHH", "soluble on expression in E. coli": "soluble"}, {"sequence": "MSLTRGEARRPPQEFDRVLSSMCTTPHPAAREAAQAFLATNPGDPETYPAVAERERDAVALLGEIVGLSSPHGYIAAGGTEANLQAVRAARNRADADAVNVVAPASAHFSFQKAADVLGVELRLAPTDGDHRADVAAVADLVDGDTAVVVGVAGTTEYGRVDPIPALADIAAGVDANLHVDAAWGGFVLPFTDHDWSFADAPVNTMAIDPHKMGQAPVPAGGFLARDPETLDALAIETPYLESDTQPTLGGTRSGAGVAGALASLRALWPDGYREQYERTQGNAEYLAAELAARGYDVVDPELPLVAADMPDAEFQALREEGWRISRTASDALRVVCMPHVTREMLAAFLDDVDALAEGHHHHHH", "soluble on expression in E. coli": "not soluble"}, {"sequence": "MSLTRLLIRDFRNIETADLALSPGFNFLVGANGSGKTSVLEAIYTLGHGRAFRSLQIGRVIRHEQEAFVLHGRLQGEERETAIGLTKDKQGDSKVRIDGTDGHKVAELAHLMPMQLITPEGFTLLNGGPKYRRAFLDWGCFHNEPGFFTAWSNLKRLLKQRNAALRQVTRYEQLRPWDKELIPLAEQISTWRAEYSAGIAADMADTCKQFLPEFSLTFSFQRGWEKETEYAEVLERNFERDRQLTYTAHGPHKADLRIRADGAPVEDTLSRGQLKLLMCALRLAQGEFLTRESGRRCLYLIDDFASELDDERRGLLASRLKATQSQVFVSAISAEHVIDMSDENSKMFTVEKGKITD", "soluble on expression in E. coli": "soluble"}, {"sequence": "MSLTRRATSLLPPNATALERRLADTNARISDIPVDIGALMDPDAIPLRFLPWLAWHLGVETWKDYWPEQVKRARVKAAIRIARKKGTAAAVREVCASFGANVAMREWFEKTPKGRPGTFEILMTVGARDGIPATAEYVADIIAEVDRAKRGTAHYTFTQGFGATGTQRIGAGARVAVYRRLSLTDIEGHHHHHH", "soluble on expression in E. coli": "not soluble"}, {"sequence": "MSLTSAPCPFRVNRIDLRVLPMRTRFPFRYGIASLVALPHLFVTVELEVNGQSVIGRTSEGLPPKWFTKDPGTPNELEVAGMLAVIQNAVRLATLHGREPVTWYPLVRQLAAEQKLWASRHDHPPLLWNLGISLMERALLDALCQAWQEPLHAVLRGPALGIRWSELHPSLADDAVPPFLADPPASQLALRHTIGLADPLTAADIPSGEEVNDGLPHTLDDCIRAYGLRYFKIKLSGNLEADRHRLTSVASVIRQHASPDFSATLDGNENFQDLTAFREWFEALNSDPGLKDFMPHVLWIEQPLHRDSALNPELFDAFRNWPEAPRLIIDESDGESGALQTALELGYSGGSHKNCKGILKGLANAATLHAFRAAHPERDFILSGEDLANVGPIPLTQDLAMQALLGIPHVERNGHHYFRGLSMYPDGIGVSAATLAAHPDLYHQLPDGLATLNIREGFIAIDSVNQAPFGTPVAPPVDQLPTVKEWILQGGLGALEGEGHHHHHH", "soluble on expression in E. coli": "soluble"}, {"sequence": "MSLTSTATDSPLKYYDIGLNLTDPMFHGIYNGKQYHPADYVKLLERAAQRHVKNALVTGSSIAESQSAIELVSSVKDLSPLKLYHTIGVHPCCVNEFADASQGDKASASIDNPSMDEAYNESLYAKVISNPSFAQGKLKELYDLMNQQAKPHDTSFRSIGEIGLDYDRFHYSSKEMQKVFFEEQLKISCLNDKLSSYPLFLHMRSACDDFVQILERFVVGFTDEKDTFQLQKLGASSSSGFYKFHPDRKLVVHSFTGSAIDLQKLLNLSPNIFIGVNGCSLRTEENLAVVKQIPTERLLLETDAPWCEIKRTHASFQYLAKYQEVRDFEYPAFKSVKKNKLADKLNAEELYMVKGRNEPCNMEQVAIVVSEVKDVDLATLIDTTWKTTCKIFGEGHHHHHH", "soluble on expression in E. coli": "soluble"}, {"sequence": "MSLTTFATEWEKQLELYPEEYRKAYRRVKRASEILLREPEPQVGLTPKEVIWTKNKTKLYRYIPKQEKTQRVPILLIYALINKPYIMDLTPGNSLVEYLVDRGFDVYMLDWGTFGLEDSHLKFDDFVFDYIAKAVKKVMRTAKSDEEGHHHHHH", "soluble on expression in E. coli": "not soluble"}, {"sequence": "MSLTVKDILDAIQSPDSTPADIAALPLPESYRAITVHKDETEMFAGLETRDKDPRKSIHLDDVPVPELGPGEALVAVMASSVNYNSVWTSIFEPLSTFGFLERYGRVSDLAKRHDLPYHVIGSDLAGVVLRTGPGVNAWQAGDEVVAHCLSVELESSDGHNDTMLDPEQRIWGFETNFGGLAEIALVKSNQLMPKPDHLSWEEAAAPGLVNSTAYRQLVSRNGAGMKQGDNVLIWGASGGLGSYATQFALAGGANPICVVSSPQKAEICRAMGAEAIIDRNAEGYRFWKDENTQDPKEWKRFGKRIRELTGGEDIDIVFEHPGRETFGASVFVTRKGGTITTCASTSGYMHEYDNRYLWMSLKRIIGSHFANYREAWEANRLIAKGRIHPTLSKVYSLEDTGQAAYDVHRNLHQGKVGVLCLAPEEGLGVRDREKRAQHLDAINRFRNEGHHHHHH", "soluble on expression in E. coli": "soluble"}, {"sequence": "MSLTVNISYLTDMDGVLIKEGEIIPGADRFLQSLTDNNVEFMVLTNNSIFTPRDLSARLKTSGLEIPPERIWTSATATAHFLKSQVKEGTAYVVGESGLTTALHTAGWILTDANPEFVVLGETRTYSFEAITTAINLILGGARFICTNPDVTGPSPSGILPATGSVAALITAATGAEPYYIGKPNPVMMRSALNTIGAHSEHTVMIGDRMDTDVKSGLEAGLSTVLVRSGISDDAEIRRYPFRPTHVINSIADLADEGHHHHHH", "soluble on expression in E. coli": "soluble"}, {"sequence": "MSLTVSFVRIDDRMIHGQTVTRWAKEYPCDGLIAVNDAAAKNKVLIQAYKGASDKKTFVWSKEAFAAKSQKVSDSDSRYFLITKNPVDMKEILVDQGFVPGEVKEIIVGPANDRPGAVKLGNNQSITQEEADAIEAIEKAGYKVKFQLLPDVSIGYWSDFKGKFGEGHHHHHH", "soluble on expression in E. coli": "soluble"}, {"sequence": "MSLTWKHYLSAWQNADLSNEWRRELQRVEEEQERFDGYLTFGTGGMRGKMGIGTKRINLFTIRRVAKGLGDYVVANEGAEMGVAIAFDSRHHSGAFAQETAKVLAAQGINVYLSDSIRPTPALSFCVREKGAFAGVVITASHNPSIYNGFKVYDKNGCQITLGVAQEIAGYLEKITDIFTIPVRELPNPLVTPLGKEMDDAYLNALTAVVSRPDLLADYGNELRICYTPLHGAGKELVMRGLLENGFSETTIIAEQSEPDGDFPTVISPNPEEENSFDLAKKLAKEIQADIILATDPDADRLGVAVLNKQATYQILTGNQLGALLLNYILEAKTPVTGADTMINTIVTGDLGGKIAYDFGINHIQTLTGFKFIGEKIAEMEGTEKNFLFGYEESYGYLIAPFVRDKDAVQAALLTAEMALFYKKEGTTLLGKLTNLFEKFGYHKEYLHTITLDDSDGITKMIQVIDALRKEPIFMPEITVVEDFLTSKRTNFVTMEVTNIELPKENVLKFYLMDSSWFAIRPSGTEPKCKIYFQTSGETEEIATKAMNELRKRVLAVWDEGHHHHHH", "soluble on expression in E. coli": "soluble"}, {"sequence": "MSLVDMVNRPYERAFEQHALANPDVLCISADLTSSCEIDKFRDNHPDQFLSMGMAEQNMMSFCGGLGLAGFRPFVHTFGVFTYRRPYDQLMASIAYPRRKVRIMGFLPGITTPGGMTHQAIEDIAVMRSMPNMTILETGDATEVESICAAADSIDGPVYCRVLRGSVPRLFDTPIKVGEMREISLGDDVLIVTAGITTEEAMRATRALEAAGVSVRHLHLHTIKPFDAGALLDHIGAVRGGVITLENHVTEGGIGSLVAEVMADNGIGKKLRRLGLKDTYAHGGSRAYLMRYYGLDALALTRGVEDLLGQPLGITEEDLAQARVEAVHSLAKAEGEGHHHHHH", "soluble on expression in E. coli": "not soluble"}, {"sequence": "MSLVQFASDTDPIVQPDSLSDAGAAAPVTREAVLGAFLRAHRERLAPADVGLPPGRRRRTPGLRREEVAQLAGLSATWVTWLEQGRPVALSARALASLAAALRLSRAERAYLFELAGRRDPQQAGGEAVPAAVMASVHAIRGPAYLLDRQWNALTWNAAAAELFIGWLDGDSQERNLLRAMFVSAPLQALVEDWPHRAGRLVAEFRAHSIRHADDAPMRALIEGLMAESPAFRAAWLSQDVEDREGGRRGFRHPALGALQFEQLTLWPAAAPGLMLVMLLPAEGHHHHHH", "soluble on expression in E. coli": "not soluble"}, {"sequence": "MSLVSEAHIYLQKTNAIQQSSADLISILAGSGGNRDLLLLRDHLLSIDMMKLLDKDLHLREHFSDRRRDLLSRLWSKDAPDERFQRYYLSRIEVTYDDYAQVLSITAQAYSPEMARAIAQMMVTEGEKYMNALDHKTAHDQVSYIEQQVSALGVRMVAARKAVLAYQDAHGLVSPGNAVESISAIASRLDAELSDLMTKRAALAGYLTPAAPDIVQLDSQIAAVKSQLQAERQRVAAKRGGGLNAVAEEQGRLEAEAALADDMYKTALVALETARVESTRKIKSVAVLQSANLPVYPLEPRRIYNILEGHHHHHH", "soluble on expression in E. coli": "not soluble"}]}]}
